Source: patent publication US20260184748A1 (University of Pennsylvania, published 2026)
Where no end group is shown, it is not given here.

Legend:
Assay in all cases: cell-based or functional assay
GRPR = GRPR (UniProt P30550 1-384)
CRHR2 = target: T1, CRHR2 (UniProt Q13324 1-411, limits assumed)
T1 sequence (looked up): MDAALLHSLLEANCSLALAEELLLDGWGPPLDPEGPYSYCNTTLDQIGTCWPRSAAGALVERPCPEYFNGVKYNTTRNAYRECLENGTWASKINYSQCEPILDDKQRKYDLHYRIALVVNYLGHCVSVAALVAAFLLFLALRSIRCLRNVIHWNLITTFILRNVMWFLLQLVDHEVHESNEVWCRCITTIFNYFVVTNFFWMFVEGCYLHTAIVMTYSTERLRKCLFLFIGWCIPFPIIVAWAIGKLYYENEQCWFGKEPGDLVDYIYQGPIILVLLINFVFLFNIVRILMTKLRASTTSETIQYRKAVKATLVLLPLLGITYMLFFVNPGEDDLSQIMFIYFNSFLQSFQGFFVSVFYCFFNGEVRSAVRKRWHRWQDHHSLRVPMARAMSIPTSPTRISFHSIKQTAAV

CALCR-RAMP3 = target: T2, CALCR-RAMP3 (UniProt P30988 25-474; O60896 24-148, limits assumed)
T2 sequence (looked up) 1: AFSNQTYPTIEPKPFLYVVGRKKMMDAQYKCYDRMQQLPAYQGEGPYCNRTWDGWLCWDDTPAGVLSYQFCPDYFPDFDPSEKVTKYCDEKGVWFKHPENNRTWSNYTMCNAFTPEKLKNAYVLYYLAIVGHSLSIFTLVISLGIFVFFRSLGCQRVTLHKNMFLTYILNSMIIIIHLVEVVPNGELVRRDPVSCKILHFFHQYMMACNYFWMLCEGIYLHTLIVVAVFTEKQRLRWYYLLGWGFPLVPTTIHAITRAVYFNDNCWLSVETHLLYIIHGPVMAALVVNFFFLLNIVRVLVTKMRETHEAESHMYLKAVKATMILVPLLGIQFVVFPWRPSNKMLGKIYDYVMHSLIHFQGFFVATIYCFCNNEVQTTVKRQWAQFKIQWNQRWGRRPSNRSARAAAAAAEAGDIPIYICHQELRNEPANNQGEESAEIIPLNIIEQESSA
T2 sequence (looked up) 2: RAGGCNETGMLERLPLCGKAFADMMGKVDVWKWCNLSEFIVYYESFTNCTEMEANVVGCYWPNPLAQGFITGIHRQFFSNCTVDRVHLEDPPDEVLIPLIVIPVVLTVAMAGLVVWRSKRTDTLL

NPBWR2 = NPBWR2 (UniProt P48146 1-333)
Sequence of NPBWR2 (P48146 whole entry): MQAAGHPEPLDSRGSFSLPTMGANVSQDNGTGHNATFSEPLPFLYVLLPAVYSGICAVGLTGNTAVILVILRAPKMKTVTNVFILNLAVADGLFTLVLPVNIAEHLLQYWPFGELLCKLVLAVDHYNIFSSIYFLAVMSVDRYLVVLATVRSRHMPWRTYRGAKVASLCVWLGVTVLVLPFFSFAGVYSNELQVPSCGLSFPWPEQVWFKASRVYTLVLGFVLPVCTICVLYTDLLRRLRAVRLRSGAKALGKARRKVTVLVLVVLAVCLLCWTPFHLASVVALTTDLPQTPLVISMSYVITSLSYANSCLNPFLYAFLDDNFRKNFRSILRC

PROKR2 = PROKR2 (UniProt Q8NFJ6 1-384)
Sequence of PROKR2 (Q8NFJ6 whole entry): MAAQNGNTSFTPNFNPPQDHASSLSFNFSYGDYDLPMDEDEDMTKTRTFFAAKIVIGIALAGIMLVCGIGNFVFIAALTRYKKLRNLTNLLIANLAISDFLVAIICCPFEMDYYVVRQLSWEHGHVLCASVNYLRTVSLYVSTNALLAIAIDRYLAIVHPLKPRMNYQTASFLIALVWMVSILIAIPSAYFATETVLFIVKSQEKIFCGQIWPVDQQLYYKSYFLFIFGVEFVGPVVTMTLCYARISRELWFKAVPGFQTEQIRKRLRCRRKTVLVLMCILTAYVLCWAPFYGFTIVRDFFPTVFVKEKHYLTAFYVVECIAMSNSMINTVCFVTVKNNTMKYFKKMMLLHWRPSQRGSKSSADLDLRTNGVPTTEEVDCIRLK

OPRK1 = OPRK1 (UniProt P41145 1-380)
Sequence of OPRK1 (P41145 whole entry): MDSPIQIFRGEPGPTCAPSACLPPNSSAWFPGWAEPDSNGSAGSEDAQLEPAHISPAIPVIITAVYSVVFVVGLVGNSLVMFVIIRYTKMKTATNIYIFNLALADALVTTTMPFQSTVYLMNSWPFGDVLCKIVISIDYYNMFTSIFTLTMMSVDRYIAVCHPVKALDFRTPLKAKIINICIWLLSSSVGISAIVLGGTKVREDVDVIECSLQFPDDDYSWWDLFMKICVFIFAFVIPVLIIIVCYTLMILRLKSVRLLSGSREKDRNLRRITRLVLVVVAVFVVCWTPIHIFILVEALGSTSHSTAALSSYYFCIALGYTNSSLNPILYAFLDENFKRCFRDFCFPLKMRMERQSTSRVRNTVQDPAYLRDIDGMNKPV

CHRM3 = CHRM3 (UniProt P20309 1-590)
Sequence of CHRM3 (P20309 whole entry): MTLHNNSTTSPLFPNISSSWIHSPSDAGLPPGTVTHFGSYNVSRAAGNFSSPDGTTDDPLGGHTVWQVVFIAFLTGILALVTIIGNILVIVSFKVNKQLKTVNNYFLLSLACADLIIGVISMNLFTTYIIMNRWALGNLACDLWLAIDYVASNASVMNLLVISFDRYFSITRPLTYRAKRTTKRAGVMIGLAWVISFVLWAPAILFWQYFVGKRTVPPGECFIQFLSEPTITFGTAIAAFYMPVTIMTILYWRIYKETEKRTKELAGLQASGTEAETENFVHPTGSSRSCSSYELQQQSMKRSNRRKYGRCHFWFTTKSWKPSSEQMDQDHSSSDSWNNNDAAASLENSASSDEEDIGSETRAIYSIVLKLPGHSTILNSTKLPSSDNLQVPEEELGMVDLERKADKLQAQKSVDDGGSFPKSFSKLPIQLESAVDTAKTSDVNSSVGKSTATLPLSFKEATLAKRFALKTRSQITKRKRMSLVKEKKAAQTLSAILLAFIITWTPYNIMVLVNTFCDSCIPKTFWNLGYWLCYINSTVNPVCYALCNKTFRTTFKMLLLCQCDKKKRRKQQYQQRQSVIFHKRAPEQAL

CCKBR = target: T3, CCKBR (UniProt P32239 1-447)
T3 sequence (looked up): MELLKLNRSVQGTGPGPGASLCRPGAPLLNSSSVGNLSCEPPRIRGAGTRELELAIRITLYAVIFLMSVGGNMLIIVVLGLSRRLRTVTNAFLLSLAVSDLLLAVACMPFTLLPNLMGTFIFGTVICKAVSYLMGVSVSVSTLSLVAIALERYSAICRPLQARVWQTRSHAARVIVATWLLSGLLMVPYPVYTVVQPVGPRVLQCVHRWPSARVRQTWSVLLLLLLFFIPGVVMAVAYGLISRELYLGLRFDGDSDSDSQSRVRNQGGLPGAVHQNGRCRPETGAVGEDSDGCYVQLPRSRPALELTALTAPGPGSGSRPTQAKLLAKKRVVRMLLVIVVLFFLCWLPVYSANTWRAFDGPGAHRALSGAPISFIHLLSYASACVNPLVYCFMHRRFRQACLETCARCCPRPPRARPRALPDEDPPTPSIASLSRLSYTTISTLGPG

FPR1 = target: T4, FPR1 (UniProt P21462 1-350)
T4 sequence (looked up): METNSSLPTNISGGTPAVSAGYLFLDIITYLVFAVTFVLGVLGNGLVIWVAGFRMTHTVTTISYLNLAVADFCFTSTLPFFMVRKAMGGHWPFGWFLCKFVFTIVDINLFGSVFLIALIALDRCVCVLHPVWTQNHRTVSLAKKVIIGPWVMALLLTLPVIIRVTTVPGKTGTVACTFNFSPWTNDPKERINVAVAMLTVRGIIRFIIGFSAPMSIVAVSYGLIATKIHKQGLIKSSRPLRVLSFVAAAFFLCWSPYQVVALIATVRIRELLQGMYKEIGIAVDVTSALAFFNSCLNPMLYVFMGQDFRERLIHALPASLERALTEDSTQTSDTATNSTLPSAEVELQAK

DRD4 = target: T5, DRD4 (UniProt P21917 1-419, limits assumed)
T5 sequence (looked up): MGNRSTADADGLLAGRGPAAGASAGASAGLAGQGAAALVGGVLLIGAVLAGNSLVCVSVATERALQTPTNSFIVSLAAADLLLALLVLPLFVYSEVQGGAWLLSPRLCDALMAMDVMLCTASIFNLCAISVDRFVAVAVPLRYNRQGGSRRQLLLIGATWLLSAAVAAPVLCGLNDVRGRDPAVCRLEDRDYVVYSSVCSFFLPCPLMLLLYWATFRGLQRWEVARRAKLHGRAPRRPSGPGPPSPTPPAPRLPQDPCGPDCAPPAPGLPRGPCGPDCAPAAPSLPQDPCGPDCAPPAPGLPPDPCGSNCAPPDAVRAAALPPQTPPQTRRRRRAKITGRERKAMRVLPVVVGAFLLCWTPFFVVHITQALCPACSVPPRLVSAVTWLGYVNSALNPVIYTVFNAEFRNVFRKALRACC

Sequence of GRPR (P30550 whole entry): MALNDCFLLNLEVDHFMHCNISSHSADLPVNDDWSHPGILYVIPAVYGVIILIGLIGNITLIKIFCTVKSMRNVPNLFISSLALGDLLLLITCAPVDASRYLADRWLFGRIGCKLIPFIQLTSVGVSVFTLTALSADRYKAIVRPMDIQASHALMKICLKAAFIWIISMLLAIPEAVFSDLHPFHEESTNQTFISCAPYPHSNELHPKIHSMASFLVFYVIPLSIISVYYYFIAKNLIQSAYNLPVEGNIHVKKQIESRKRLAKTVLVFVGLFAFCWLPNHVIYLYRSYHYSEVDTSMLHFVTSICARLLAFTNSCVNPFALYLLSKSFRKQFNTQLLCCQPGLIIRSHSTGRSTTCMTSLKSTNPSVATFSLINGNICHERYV

## QATVGDVNTDRPGLLDLK (also: synthesised on Rink amide resin, C-terminal amide not given here outright) [octadecaneuropeptide (ODN)]
GRPR
  % Activity, arrestin, antagonist mode, 2.5 uM: -12.2%
CRHR2
  % Activity, arrestin, antagonist mode, 2.5 uM: -8.6%
CALCR-RAMP3
  % Activity, arrestin, antagonist mode, 2.5 uM: -0.1%
NPBWR2
  % Activity, arrestin, antagonist mode, 2.5 uM: -1.1%
PROKR2
  % Activity, arrestin, antagonist mode, 2.5 uM: -17.5%
OPRK1
  % Activity, arrestin, antagonist mode, 2.5 uM: -4.5%
CHRM3
  % Activity, arrestin, antagonist mode, 2.5 uM: 12.6%
CCKBR
  % Activity, arrestin, antagonist mode, 2.5 uM: -7.8%
FPR1
  % Activity, arrestin, antagonist mode, 2.5 uM: -11.1%
DRD4
  % Activity, arrestin, antagonist mode, 2.5 uM: 2.5%
